Experimental data published in patent publication US11254722B2, “Recombinant proteins and uses thereof” (ACADEMIA SINICA, priority 2017, dated 2022).

T1: nrgEGF (amino acids Thr176-Lys246 of neuregulin-beta 1) (Homo sapiens, UniProt Q02297)
T1 construct: Thr176-Lys246 of neuregulin-beta 1; purchased R&D Sciences or SinoBiologicals
T1 sequence (Q02297 176-246 isoform Q02297-6): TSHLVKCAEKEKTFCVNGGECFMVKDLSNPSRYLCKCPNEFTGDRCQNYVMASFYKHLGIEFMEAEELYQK

T2: VEGF B (Homo sapiens, UniProt P49765)
T2 construct: purchased R&D Sciences or SinoBiologicals
T2 sequence (P49765 22-207): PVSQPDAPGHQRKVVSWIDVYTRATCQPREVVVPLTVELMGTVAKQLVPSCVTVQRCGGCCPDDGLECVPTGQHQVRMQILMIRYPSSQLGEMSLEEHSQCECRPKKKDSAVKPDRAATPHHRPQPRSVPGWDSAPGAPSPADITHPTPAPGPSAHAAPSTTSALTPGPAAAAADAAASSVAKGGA

B1: D2V1V2Fc: IGFBP3 with IGFBP3 linker deletion 2-gly 3 linker-v1v2-Fc, SEQ ID NO: 17 (protein)
chain: MSEVPVARVWLVLLLLTVQVGVTAGHHHHHHGASSAGLGPVVRCEPCDARALAQCAPPPAVCAELVREPGCGCCLTCALSEGQPCGIYTERCGSGLRCQPSPDEARPLQALLDGRGLCVNASAVSRPAPPAPGNASESEEDRSAGSVESPSVSSTHRVSDPKFHPKGHAKDSQRYKVDYESQSTDTQNFSSESKRETEYGPCRREMEDTLNHLKFLNVLSPRGVHIPNCDKKGFYKKKQCRPSKGRKRGFCWCVDKYGQPLPGYTTKGKEDVHCYSMQSKAPPAPGNASESEEDRSAGIYIFISDTGRPFVEMYSEIPEIIHMTEGRELVIPCRVTSPNITVTLKKFPLDTLIPDGKRIIWDSRKGFIISNATYKEIGLLTCEATVNGHLYKTNYLTHRQGYRIYDVVLSPSHGIELSVGEKLVLNCTARTELNVGIDFNWEYPSSKHQHKKLVNRDLKTQSGSEMKKFLSTLTIDGVTRSDQGLYTCAASSGLMTKKNSTFVRVHEKVECPPCPAPPVAGPSVFLFPPKPKDQLMISRTPEVTCVVVDVSHEDPEVKFNWYVDGVEVHNAKTKPREEQYNSTYRVVSVLTVLHQDWLNGKEYKCKVSNKGLPSSIEKTISKAKGQPREPQVYTLPPSREEMTKNQVSLTCLVKGFYPSDIAVEWESNGQPENNYKTTPPVLDSDGSFFLYSKLTVDKSRWQQGNVFSCSVMHEGLHNHYTQKSLSLSPGK
B2: IGFBP3-v1v2-erbB4-Fc: ErbB4-GS-IGFBP3-gly 3 linker-v1v2-Fc, SEQ ID NO: 20 (protein)
chain: MSEVPVARVWLVLLLLTVQVGVTAGVQPSDSQSVCAGTENKLSSLSDLEQQYRALRKYYENCEVVMGNLEITSIEHNRDLSFLRSVREVTGYVLVALNQFRYLPLENLRIIRGTKLYEDRYALAIFLNYRKDGNFGLQELGLKNLTEILNGGVYVDQNKFLCYADTIHWQDIVRNPWPSNLTLVSTNGSSGCGRCHKSCTGRCWGPTENHCQTLTRTVGGGGSGGGGSGGGGSGGGGSGGGGGASSAGLGPVVRCEPCDARALAQCAPPPAVCAELVREPGCGCCLTCALSEGQPCGIYTERCGSGLRCQPSPDEARPLQALLDGRGLCVNASAVSKGHAKDSQRYKVDYESQSTDTQNFSSESKRETEYGPCRREMEDTLNHLKFLNVLSPRGVHIPNCDKKGFYKKKQCRPSKGRKRGFCWCVDKYGQPLPGYTTKGKEDVHCYSMQSKAPPAPGNASESEEDRSAGIYIFISDTGRPFVEMYSEIPEIIHMTEGRELVIPCRVTSPNITVTLKKFPLDTLIPDGKRIIWDSRKGFIISNATYKEIGLLTCEATVNGHLYKTNYLTHRQGYRIYDVVLSPSHGIELSVGEKLVLNCTARTELNVGIDFNWEYPSSKHQHKKLVNRDLKTQSGSEMKKFLSTLTIDGVTRSDQGLYTCAASSGLMTKKNSTFVRVHEKVECPPCPAPPVAGPSVFLFPPKPKDQLMISRTPEVTCVVVDVSHEDPEVKFNWYVDGVEVHNAKTKPREEQYNSTYRVVSVLTVLHQDWLNGKEYKCKVSNKGLPSSIEKTISKAKGQPREPQVYTLPPSREEMTKNQVSLTCLVKGFYPSDIAVEWESNGQPENNYKTTPPVLDSDGSFFLYSKLTVDKSRWQQGNVFSCSVMHEGLHNHYTQKSLSLSPGK
B3: 4142: SEQ ID NO: 24; the N-terminus only (protein)
chain: MSEVPVARVWLVLLLLTVQVGVTAGGASSAGLGPVVRCEPCDARALAQCAPPPAVCAELVREPGCGCCLTCALSEGQPCGIYTERCGSGLRCQPSPDEARPLQALLDGRGLCVNASAVSVECPPCPAPPVAGPSVFLFPPKPKDQLMISRTPEVTCVVVDVSHEDPEVKFNWYVDGVEVHNAKTKPREEQYNSTYRVVSVLTVLHQDWLNGKEYKCKVSNKGLPSSIEKTISKAKGQPREPQVYTLPPSREEMTKNQVSLTCLVKGFYPSDIAVEWESNGQPENNYKTTPPVLDSDGSFFLYSKLTVDKSRWQQGNVFSCSVMHEGLHNHYTQKSLSLSPGK
B4: 4382: SEQ ID NO: 25; the complete link region (protein)
chain: MSEVPVARVWLVLLLLTVQVGVTAGGASSAVNASAVSRLRAYLLPAPPAPGNASESEEDRSAGSVESPSVSSTHRVSDPKFHPLHSKIIIIKKGHAKDSQRYKVDYESQSTDTQNFSSESKREVECPPCPAPPVAGPSVFLFPPKPKDQLMISRTPEVTCVVVDVSHEDPEVKFNWYVDGVEVHNAKTKPREEQYNSTYRVVSVLTVLHQDWLNGKEYKCKVSNKGLPSSIEKTISKAKGQPREPQVYTLPPSREEMTKNQVSLTCLVKGFYPSDIAVEWESNGQPENNYKTTPPVLDSDGSFFLYSKLTVDKSRWQQGNVFSCSVMHEGLHNHYTQKSLSLSPGK
B5: 3(del2)3: IGFBP3 with IGFBP3 linker deletion 2-Fc, SEQ ID NO: 11 (protein)
chain: MSEVPVARVWLVLLLLTVQVGVTAGGASSAGLGPVVRCEPCDARALAQCAPPPAVCAELVREPGCGCCLTCALSEGQPCGIYTERCGSGLRCQPSPDEARPLQALLDGRGLCVNASAVSRPAPPAPGNASESEEDRSAGSVESPSVSSTHRVSDPKFHPKGHAKDSQRYKVDYESQSTDTQNFSSESKRETEYGPCRREMEDTLNHLKFLNVLSPRGVHIPNCDKKGFYKKKQCRPSKGRKRGFCWCVDKYGQPLPGYTTKGKEDVHCYSMQSKVECPPCPAPPVAGPSVFLFPPKPKDQLMISRTPEVTCVVVDVSHEDPEVKFNWYVDGVEVHNAKTKPREEQYNSTYRVVSVLTVLHQDWLNGKEYKCKVSNKGLPSSIEKTISKAKGQPREPQVYTLPPSREEMTKNQVSLTCLVKGFYPSDIAVEWESNGQPENNYKTTPPVLDSDGSFFLYSKLTVDKSRWQQGNVFSCSVMHEGLHNHYTQKSLSLSPGK
B6: 4141: SEQ ID NO: 23; a fragment comprising the N-terminus and the linker region from h3t33 (protein)
chain: MSEVPVARVWLVLLLLTVQVGVTAGGASSAGLGPVVRCEPCDARALAQCAPPPAVCAELVREPGCGCCLTCALSEGQPCGIYTERCGSGLRCQPSPDEARPLQALLDGRGLCVNASAVSKGHAKDSQRYKVDYESQSTDTQNFSSESKRETEYVECPPCPAPPVAGPSVFLFPPKPKDQLMISRTPEVTCVVVDVSHEDPEVKFNWYVDGVEVHNAKTKPREEQYNSTYRVVSVLTVLHQDWLNGKEYKCKVSNKGLPSSIEKTISKAKGQPREPQVYTLPPSREEMTKNQVSLTCLVKGFYPSDIAVEWESNGQPENNYKTTPPVLDSDGSFFLYSKLTVDKSRWQQGNVFSCSVMHEGLHNHYTQKSLSLSPGK

Columns and labels:
HUVEC cells = experiment: HUVEC proliferation assay; format: cell-based
Protocol: (§1) MCF-7 cells (a breast cancer cell line) were maintained in MEM (GIBCO) plus insulin and NEAA and 10% FBS (Hyclone).
(§2) For the proliferation assay, cells except for HUVEC were seeded at a density of 1,000 to 6,000 in 96 wells in an assay buffer of DMEM/F12 plus 0.2% BSA and 10 ug/ml transferrin. Chemical inhibitors were added after 16-20 hours after plating; IGF-1 or other growth factors or test chimeras in assay buffer were added at the time of plating or 16-20 hours after plating. 5,000 HUVEC ells were plated in poly-L-lysine coated 96 wells in M199 with 1%/FBS and HEPES. After 3 to 4 days of culture, growth was determined by incubating cells with Alamar blue for 4 to 6 hours and then the fluorescence (RFU) at 544/590 nm was read. For long term proliferation assays, cells were plated in the growth media with 5% or 10% FBS at densities of 500 to 10,000 cells per cm^2 growth area and grown for 7 to 21 days. Inhibitors and effectors were added 1-4 days after plating. Cells were exposed to cisplatin or gemcitabine for two days. Medium was renewed twice weekly. At completion, cells were fixed and then stained with Giemsa.
Growth factor synergism can also be observed in the proliferation of HUVEC cells.

HT29 cells = experiment: HT29 proliferation assay; format: cell-based, human; settings: FIG. 17A isobologram, FIG. 17B
Protocol: as §1, §2
The combination of drug (erlotinib and vemurafenib in hep3b and HT29 cells, respectively) and chimera can be synergistic; so, in addition to enhancing the inhibition, the chimera addition may also lower drug concentration requirements and reduce side effects.

[1] = target: T1, nrgEGF (amino acids Thr176-Lys246 of neuregulin-beta 1); experiment: Biacore binding to nrgEGF
Protocol: (§3) Biacore binding was performed at David Myszka's laboratory at the University of Utah or at the Genomic Research Center at Academia Sinica. Surfaces of binding protein chimera were made via chemical immobilization on a CM4 chip using standard amine coupling chemistry. […] Excess surface carboxyl activated sites on all four flow cells was blocked using the doubly positively charged species ethylenediamine. Binding experiments (but not immobilizations) in HBS-P (10 mM HEPES pH 7.4, 150 mM NaCl, 0.05% P20), The HBS-P was supplemented with BSA at 0.2 mg/mL, or HBS-P was supplemented with 500 mM NaCl (650 mM NaCl, final concentration). Analytes were also reconstituted in the corresponding buffer. All experiments were performed at 25° C. 1/150 dilutions of phosphoric acid were used to regenerate IGFBP3-Fc surfaces and a sequence of 3 M MgCl2 followed by 5 M GuCl was used to regenerate surfaces immobilized with growth factor. Dissociation constants reported below used immobilized binding protein unless noted. Differences between binding constants may be expected between growth factor immobilization and chimera immobilization.
In this example, erbB4 domain 1 was attached to the N-terminus of the recombinant IGFBP3-Fc or the recombinant IGFBP3-v1v2-Fc.

IGF-1 = target: T3, IGF-1 (Homo sapiens, UniProt P05019); experiment: Biacore binding to IGF-1; set-up: key to growth factor binding, igf1: +: sufficient to bind; −: unable to bind; settings: tested in .65M NaCL
T3 construct: purchased R&D Sciences or SinoBiologicals
Protocol: as §3

IGF-2 = target: T4, IGF-2 (Homo sapiens, UniProt P01344); experiment: Biacore binding to IGF-2; set-up: key: +: sufficient to bind; −: unable to bind; settings: tested in .65M NaCL
T4 construct: purchased R&D Sciences or SinoBiologicals
Protocol: as §3

nrgbx = experiment: Biacore binding to nrgbx; set-up: key: +: sufficient to bind; −: unable to bind; settings: tested in .65M NaCL
Protocol: as §3

bFGF = target: T5, bFGF (Homo sapiens, UniProt P09038); experiment: Biacore binding to bFGF; set-up: key: +: sufficient to bind; −: unable to bind; settings: tested in .65M NaCL
T5 construct: purchased R&D Sciences or SinoBiologicals
Protocol: as §3

VEGF B = target: T2, VEGF B; experiment: Biacore binding to VEGF B; set-up: key: +: sufficient to bind; −: unable to bind; settings: tested in .65M NaCL
Protocol: as §3

PDGF AB = target: T6, PDGF AB (Homo sapiens, UniProt P01127+P04085); experiment: Biacore binding to PDGF AB; set-up: key: +: sufficient to bind; −: unable to bind; settings: tested in .65M NaCL
T6 construct: purchased R&D Sciences or SinoBiologicals
Protocol: as §3

T4 sequence (P01344 25-91): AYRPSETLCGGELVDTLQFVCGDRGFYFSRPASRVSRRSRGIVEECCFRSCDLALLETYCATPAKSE
T3 sequence (P05019 49-118 limits assumed): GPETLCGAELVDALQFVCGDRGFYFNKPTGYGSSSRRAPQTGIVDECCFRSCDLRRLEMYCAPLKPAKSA
T5 sequence (P09038 143-288): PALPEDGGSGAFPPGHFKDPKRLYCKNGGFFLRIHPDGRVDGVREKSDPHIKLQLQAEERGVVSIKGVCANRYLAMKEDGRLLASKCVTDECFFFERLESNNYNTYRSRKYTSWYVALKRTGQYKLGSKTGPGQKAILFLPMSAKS
T6 sequence (P01127 82-190 limits assumed, other chains not shown): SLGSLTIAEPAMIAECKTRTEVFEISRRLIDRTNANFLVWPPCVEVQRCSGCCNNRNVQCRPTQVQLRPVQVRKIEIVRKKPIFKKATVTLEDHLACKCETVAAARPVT

| Molecule | growth factor binding, igf1 (IGF-1) | growth factor binding, igf2 (IGF-2) | growth factor binding, nrgbx (nrgbx) | growth factor binding, bFGF (bFGF) | growth factor binding, VEGF B (VEGF B) | growth factor binding, PDGF AB (PDGF AB) | other results |
| --- | --- | --- | --- | --- | --- | --- | --- |
| B1 |  |  |  |  |  |  | inhibition of HUVEC proliferation stimulated by IGF-1, bFGF, HGF, VEGF, and combinations (HUVEC cells; FIG. 14): inhibited; inhibition with vemurafenib in HT29 cells (HT29 cells): synergistic inhibition |
| B2 |  |  |  |  |  |  | Kd [1]: 11 nM |
| B3 | + | + | − | − | − | − |  |
| B4 | − | − | − | − | − | − |  |
| B5 |  |  |  |  |  |  | inhibition of VEGF-induced proliferation of HUVEC cells (HUVEC cells; FIG. 6, FIG. 13): did not inhibit; inhibition of HUVEC proliferation induced by IGF, bFGF, HGF or a combination (HUVEC cells; FIG. 13): inhibited |
| B6 | + | + | + | + | + | + |  |
